Consider three proteins from patent US20050204417A1 (WASHINGTON STATE UNIVERSITY RESEARCH FOUNDATION, published 2005).

B1: His-tagged AgGPPS2 truncated protein (SEQ ID NO:12) (enzyme)
chain: MFDFNKYMDSKAMTVNEALNKAIPLRYPQKIYESMRYSLLAGGKRVRPVLCIAACELVGGTEELAIPTACAIEMIHTMSLMHDDLPCIDNDDLRRGKPTNHKIFGEDTAVTAGNALHSYAFEHIAVSTSKTVGADRILRMVSELGRATGSEGVMGGQMVDIASEGDPSIDLQTLEWIHIHKTAMLLECSVVCGAIIGGASEIVIERARRYARCVGLLFQVVDDILDVTKSSDELGKTAGKDLISDKATYPKLMGLEKAKEFSDELLNRAKGELSCFDPVKAAPLLGLADYVAFRQNLEHHHHHH
notes: N-terminally truncated (leader removed) with C-terminal His6 tag, expressed in E. coli; homodimer by gel filtration
B2: His-tagged AgGPPS1 truncated protein (SEQ ID NO:16) (enzyme)
chain: MFDFKEYLHSKAISVNEALERAVPLRYPEKIHEAMRYSLLAGGKRIRPILTIAACELVGGSEELAMPTACAMEMIHTMSLIHDDLPSMDNDDLRRGKLTNHKVFGEGTAVLAGDALLSFAFEHIAVSTRKTVASHRVLRVVSELGKAIGSQGVAGGQVADITSEGDPSVGLETLEWIHIHKTAVLLECAVVSGAIIGGASENEIERTGRYARCVGLLFQVVDDILDVTRSSEELGKTAGKDLVSDKATYPKLMGLEKAKEFADELLDRAKEELSCFNPAKAAPLLGLADYIALRQNLEHHHHHH
notes: as for B1
B3: His-tagged AgGPPS3 truncated protein (SEQ ID NO:20) (enzyme)
chain: MFDFNKYMLSKAMAVTEALDKAIPHSYPQKIHESMRYSLLAGGKRVRPVLCIAACELVGGREELAMPTACAMEMIHTMSLIHDDLPCMDNDDLRRGKPTNHKVFGQDTALLAGDALHAFAFEHIVAFTSKSVGSDGILRAVTELARATGPQGIMGGQIVDIASERDAFVDLQTLEWIHIHKTAVLFECATVCGAIIGGASGDEIERIRRFARYLGLLFQVVDDILDVTKSSEDLGKTAGKDLVSDKATYPKLMGLEKAKGFSLELLNKAKEELSCFDPMKAAPLFGLADYMALRQNLEHHHHHH
notes: as for B1

The series concerns the molecule itself. The series can be described thus: gel filtration on calibrated Superdex 200; self-association of the subunit. How it is done:
Molecular weight determination and kinetic evaluation. The molecular weight of GPP synthase was determined by gel filtration chromatography on a calibrated XK 16/70 column of Superdex 200 (Amersham Biosciences) as previously described (C. Burke and R. Croteau, J. Biol. Chem. 277:3141-3149, 2002). For kinetic evaluation, the standard prenyltransferase assay was performed (C. Burke and R. Croteau, J. Biol. Chem. 277:3141-3149, 2002) but the reaction was terminated after 4 min. to ensure linearity in the rate measurements. For preparative incubations, the reaction time was extended to 8 min., and all assays contained from 0.25 to 1.0 μg of purified protein.
A general note: In gel filtration, larger molecules generally elute earlier.
Turning to B1, the binding result was “binds”.
Then B2, with “binds”.
Turning to B3, the binding result was “binds”.
